Patent US20150252107A1, “APLNR Modulators and Uses Thereof” (Regeneron Pharmaceuticals, Inc., priority 2013, published 2015)

T1: hAPLNR (Homo sapiens, UniProt P35414)
T1 construct: expressed in transfected cells
T1 sequence (P35414 1-380): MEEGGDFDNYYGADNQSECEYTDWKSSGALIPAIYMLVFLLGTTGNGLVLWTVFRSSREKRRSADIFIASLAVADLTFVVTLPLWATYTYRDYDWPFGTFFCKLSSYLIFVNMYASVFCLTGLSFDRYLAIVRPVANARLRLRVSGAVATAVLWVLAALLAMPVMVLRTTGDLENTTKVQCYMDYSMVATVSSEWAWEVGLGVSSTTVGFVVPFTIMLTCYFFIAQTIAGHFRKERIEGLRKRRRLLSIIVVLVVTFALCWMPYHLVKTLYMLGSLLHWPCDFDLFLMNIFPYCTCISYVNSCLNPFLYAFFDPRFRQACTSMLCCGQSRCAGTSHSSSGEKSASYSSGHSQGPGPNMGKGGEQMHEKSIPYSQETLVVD


Assays:
hAPLNR [1] = molecular target: T1, hAPLNR; experiment: cyclic AMP (CRE-luciferase) assay, inhibition of hAPLNR in the presence of 100 pM Apelin; assay type: cell-based; conditions: Tables 6C and 6D
Procedure: (§1) The resulting cell line, HEK293/CRE-luc/hAPLNR, was maintained in DMEM containing 10% FBS, NEAA, penicillin/streptomycin, and 100 μg/mL Hygromycin B.
(§2) Testing of antibodies included a no antibody control.
(§3) The results of all assays were analyzed using nonlinear regression (4-parameter logistics) within Prism 5 software (GraphPad).

hAPLNR [2] = molecular target: T1, hAPLNR; experiment: cyclic AMP (CRE-luciferase) assay, activation of hAPLNR in HEK293/CRE-luc/hAPLNR cells; assay type: cell-based; conditions: without Apelin; for % Activation at 100 nM mAb (at 5 uM Forskolin) / % Activation at 100 nM mAb (at 10 uM Forskolin): Table 6A, % of maximum Apelin activation
Procedure: The ability of anti-APLNR antibodies to activate hAPLNR-mediated cell signaling was measured using a cyclic AMP assay. The hAPLNR is a 7-transmembrane G-protein coupled receptor (GPCR).
as §1, §2, §3

HEK293 parental cells = experiment: FACS binding to HEK293 parental cells; conditions: 10 μg/mL antibody
Procedure: Binding ratios for human APLNR binding to purified anti-APLNR monoclonal antibodies were determined by a fluorescence-activated cell sorting (FACS) binding assay. […] The resulting stable cell lines, HEK293/CRE-luc/hAPLNR and HEK293/CRE-luc/MfAPLNR, were maintained in DMEM containing 10% FBS, NEAA, and penicillin/streptomycin with either 100 μg/mL Hygromycin B for hAPLNR cells or 500 μg/mL G418 for MfAPLNR cells.
For the FACS analysis, HEK293 parental, HEK293/CRE-luc/hAPLNR, and, HEK293/CRE-luc/mfAPLNR cells were dissociated using Enzyme Free Dissociation reagent (#S-004, Millipore, Billerica, Mass., USA) and 10^6 cells/well were plated onto 96-well v-bottom plates in PBS containing 1% FBS. […] Cells were then filtered and analyzed on Accuri Flow Cytometer (BD Biosciences, San Jose, Calif., USA). Unstained and secondary antibody alone controls were also tested for binding to all cell lines. […] Geometric mean (Geom. mean) of fluorescence for each antibody was then normalized to geometric mean of unstained cells to obtain relative binding of antibody (binding ratios) per each cell type: HEK293 (parental), HEK293/CRE-luc/hAPLNR and HEK293/CRE-luc/MfAPLNR.

Molecule	inhibition (maximum blockade) of 100ρM Apelin activation (hAPLNR [1])	% Activation at 100 nM mAb (at 5 uM Forskolin) (hAPLNR [2])	Binding Ratio of Geom. Mean to Unstained Cells, HEK293 Parental (HEK293 parental cells)	% Activation at 100 nM mAb (at 10 uM Forskolin) (hAPLNR [2])	activation of hAPLNR, % of maximum Apelin activation at 100 nM, the highest antibody dose tested (hAPLNR [2]; text on Table 6A) [%]
H4H9103P: anti-APLNR antibody, HCVR/LCVR SEQ ID NOs 162/170, human IgG4 Fc (antibody, V domains shown, human IgG4 Fc) VH: EVQLVESGGGLVQPGRSLRLSCAASGFTFDDYAMHWVRQVPGKGLEWVSGITWNSGDIGYADSVKGRFTISRDNAKNSLYLQMNSLRAEDTALYYCTKDKDSSGYYGIDVWGQGTTVTVSS VL: DIQMTQSPSSVSASVGDRVTITCRASQGIRTWLAWYQQKPGKAPKLLIYAASSLQSGVPSRFSGSESGTDFTLTISSLQPEDFATYYCQQANSFPFTFGPGTKVDIK	did not demonstrate any measurable blockade	No Activation	–	–	–
H4H9101P: anti-APLNR antibody, HCVR/LCVR SEQ ID NOs 146/154, human IgG4 Fc (antibody, V domains shown, human IgG4 Fc) VH: QVQLVQSGAEVKKPGASVEVSCKASGYTFTDYYIHWIRQAPGQGLEWMGWINPDSGRTNYAQKFQVRVTMTRDTSITTAYMELNRLKSDDTAVYYCARGPLRGYSGYDFFDYWGQGTLVTVSS VL: DIQLTQSPSFLSASVGDRVTITCWASQGISSYLAWYQQKPGKAPKLLIYAASTLQSGVPSRFSGSGSGTEFTLTISSLQPEDFASYFCQQLNSNPRTFGQGTKVEIK	did not demonstrate any measurable blockade	No Activation	–	–	–
H1M9207N: anti-APLNR antibody, HCVR/LCVR SEQ ID NOs 2/10, mouse IgG1 Fc (antibody, V domains shown, mouse IgG1 Fc) VH: EVQLVESGGGLAQPGGSLRLSCAASGFTFSNYWMSWVRQAPGKGLEWVANIKQDGSEKYYLESVKGRFTISRDNAKNLLYLQMNSLRAEDTAVFYCARPGLLRFLEPGRRYYSGMNVWGQGTTVTVSS VL: DIQLTQSPSFLSASVGDRVTITCWASQGIRSYLAWYQQKPGKAPKLLIYAASTLQSGVPSRFSGSGSGTEFTLTISSLQPEDFATYYCQQFNSYPWTFGQGTKVEIK	–	–	4	No Activation	–
H4H9112P: anti-APLNR antibody, HCVR/LCVR SEQ ID NOs 194/202, human IgG4 Fc (antibody, V domains shown, human IgG4 Fc) VH: QVQLVQSGAEVKKPGASVEVSCKASGYTFTDYYIHWIRQAPGQGLEWMGWINPDSGRTNYAQKFQVRVTMTRDTSITTAYMELNRLKSDDTAVYYCARGPLRGYSGYDFFDYWGQGTLVTVSS VL: DIQMTQSPSSLSAFVGDRVTITCRASQSISSYLNWYQQKPGKAPKLLIYTASTLQRGVPSRFRGSGSGTDFTLTISSLQPEDFATYYCHQTYSIPITFGQGTRLEIK	did not demonstrate any measurable blockade	No Activation	–	–	–
H4H9104P: anti-APLNR antibody, HCVR/LCVR SEQ ID NOs 178/186, human IgG4 Fc (antibody, V domains shown, human IgG4 Fc) VH: QVQLVESGGDLVKPGGSLRLSCAASGFTFSDYYMNWIRQAPGKGLEWVSYISSSGSTIHYADSVKGRFTISRDNAKNLVYLRMNSLRAEDTAVYFCAREREVHDYSDPYFFFYGMDVWGQGTTVTVSS VL: DIQMTQSPSSVSASVGDRVTITCRASQDVSSWLAWYQHKPGKAPKLLIFAASSLQSGVPSRFSGSGSGTDFTLTISSLQSEDFATYYCQQANSFPLTFGGGTKVEIK	did not demonstrate any measurable blockade	No Activation	–	–	–
H2aM9227N: anti-APLNR antibody, HCVR/LCVR SEQ ID NOs 50/58, mouse IgG2a Fc (antibody, V domains shown, mouse IgG2a Fc) VH: EVQLVESGGGLVQPGGSLRLSCAASGFTFSSFWMSWVRQVPGKGLEWVANIKQDGSEKYYVDSVKGRFTISRDNAKNSLYLQMNSLRAEDTAVYYCARDRFGYSFYDKGVRYYYGMDVWGQGTTVTVSS VL: DIQMTQSPSSLSVSVGDRVTITCRASQGIRNDLGWYQQKPGKAPKRLIYATSSLQSGVPSRFSGSGSGTEFTLTISGLQPEDFATYYCLQHNSYPRTFGQGTKVEIK	–	–	4	12%	12
H2aM9222N: anti-APLNR antibody, HCVR/LCVR SEQ ID NOs 34/42, mouse IgG2a Fc (antibody, V domains shown, mouse IgG2a Fc) VH: EVQLVESGGGLVQPGGSLRLSCAASGFTFSNYWMSWVRQAPGKGLEWVANIKQDGSERYYVGSVKGRFTISRGDAENSLYLQMNSLRAEDTAVYYCARDRFGYSAYDKGVRYYYGMDVWGQGTTVTVSS VL: DIQMTQSPSSLSASVGDRVTITCRASQGIRNDLGWYQQKPGKAPKRLIYAASSLQSGVPSRFSGSGSGTEFTLTISSLQPEDFATYYCLQHNSYPRTFGQGTKVEIK	–	–	2	No Activation	–
H2aM9230N: anti-APLNR antibody, HCVR/LCVR SEQ ID NOs 82/90, mouse IgG2a Fc (antibody, V domains shown, mouse IgG2a Fc) VH: EVQLVESGGGLVQPGGSLRLSCAASGFTFSSFWMSWVRQVPGKGLQWVANIKQDGSEKYYVDSVKGRFTISRDNAKNSLYLQMNSLRAEDTAVYYCARDRFGYSVYDKGVRYYYGMDVWGQGTTVTVSS VL: DIQMTQSPSSLSVSVGDRVTITCRASQGIRNDLGWYQQKPGKAPKRLIYAASSLQSGVPSRFSGSGSGTEFTLTISGLQSEDFATYYCLQHKSYPRTFGQGTKVEIK	–	–	3	No Activation	–
H4H9113P: anti-APLNR antibody, HCVR/LCVR SEQ ID NOs 210/218, human IgG4 Fc (antibody, V domains shown, human IgG4 Fc) VH: QVQLVQSGAEVKKPGASVEVSCKASGYTFTDYYIHWIRQAPGQGLEWMGWINPDSGRTNYAQKFQVRVTMTRDTSITTAYMELNRLKSDDTAVYYCARGPLRGYSGYDFFDYWGQGTLVTVSS VL: DIQMTQSPSSLSASVGDRVTITCRASQGIRNDLGWYQQKPGKAPNRLIYAASSLQSGVPSRFSGSGSGTEFTLTISSLHPEDFATYSCLQHNSFPLTFGGGTKVEIK	did not demonstrate any measurable blockade	No Activation	–	–	–
H2aM9228N: anti-APLNR antibody, HCVR/LCVR SEQ ID NOs 66/74, mouse IgG2a Fc (antibody, V domains shown, mouse IgG2a Fc) VH: EVQLVESGGGLVQPGGSLRLSCAASGFTFSNYWMSWVRLAPGKGLEWVANIKQDGSERYYVGSVKGRFTISRGDAKNSLYLQMNSLRAEDTAVYYCARDRFGYSAFDKGVRYYYGMDVWGQGTTVTVSS VL: DIQMTQSPSSLSASVGDRVTITCRASQGIRNDLGWYQQKPGKAPKRLIYAASSLQSGVPSRFSGSGSGTEFTLTISSLQPEDFATYYCLQHNSYPRTFGQGTKVEIK	–	–	3	No Activation	–
